Non-standard residues stand in square brackets, D forms with d. pT = C[C@@H](OP(=O)(O)O)[C@H](N)C(=O)O; pS = N[C@@H](COP(=O)(O)O)C(=O)O
T1: Ac-pSPTF-COOH (peptide 18) (Homo sapiens, UniProt Q9BX63, SMILES CC(=O)N[C@@H](COP(=O)(O)O)C(=O)N1CCC[C@H]1C(=O)N[C@H](C(=O)N[C@@H](Cc1ccccc1)C(=O)O)[C@@H](C)O)
T1 chain: Ac-[pS]PTF-OH

T2: Ac-pSPSF-CONH2 (peptide 8) (Homo sapiens, UniProt Q9BX63, SMILES CC(=O)N[C@@H](COP(=O)(O)O)C(=O)N1CCC[C@H]1C(=O)N[C@@H](CO)C(=O)N[C@@H](Cc1ccccc1)C(N)=O)
T2 chain: Ac-[pS]PSF-NH2

T3: Ac-pSPAF-CONH2 (peptide 6) (Homo sapiens, UniProt Q9BX63, SMILES CC(=O)N[C@@H](COP(=O)(O)O)C(=O)N1CCC[C@H]1C(=O)N[C@@H](C)C(=O)N[C@@H](Cc1ccccc1)C(N)=O)
T3 chain: Ac-[pS]PAF-NH2

T4: Ac-pSPVF-COOH (peptide 19) (Homo sapiens, UniProt Q9BX63, SMILES CC(=O)N[C@@H](COP(=O)(O)O)C(=O)N1CCC[C@H]1C(=O)N[C@H](C(=O)N[C@@H](Cc1ccccc1)C(=O)O)C(C)C)
T4 chain: Ac-[pS]PVF-OH

T5: Ac-pSPPF-CONH2 (peptide 15) (Homo sapiens, UniProt Q9BX63, SMILES CC(=O)N[C@@H](COP(=O)(O)O)C(=O)N1CCC[C@H]1C(=O)N1CCC[C@H]1C(=O)N[C@@H](Cc1ccccc1)C(N)=O)
T5 chain: Ac-[pS]PPF-NH2

T6: Ac-pSPVF-CONH2 (peptide 7) (Homo sapiens, UniProt Q9BX63, SMILES CC(=O)N[C@@H](COP(=O)(O)O)C(=O)N1CCC[C@H]1C(=O)N[C@H](C(=O)N[C@@H](Cc1ccccc1)C(N)=O)C(C)C)
T6 chain: Ac-[pS]PVF-NH2

T7: Ac-pSATF-CONH2 (peptide 5) (Homo sapiens, UniProt Q9BX63, SMILES CC(=O)N[C@@H](COP(=O)(O)O)C(=O)N[C@@H](C)C(=O)N[C@H](C(=O)N[C@@H](Cc1ccccc1)C(N)=O)[C@@H](C)O)
T7 chain: Ac-[pS]ATF-NH2

T8: Ac-pTPTF-CONH2 (peptide 4) (Homo sapiens, UniProt Q9BX63, SMILES CC(=O)N[C@H](C(=O)N1CCC[C@H]1C(=O)N[C@H](C(=O)N[C@@H](Cc1ccccc1)C(N)=O)[C@@H](C)O)[C@@H](C)OP(=O)(O)O)
T8 chain: Ac-[pT]PTF-NH2

T9: Ac-pSPTF-CONH2 (peptide 1) (Homo sapiens, UniProt Q9BX63, SMILES CC(=O)N[C@@H](COP(=O)(O)O)C(=O)N1CCC[C@H]1C(=O)N[C@H](C(=O)N[C@@H](Cc1ccccc1)C(N)=O)[C@@H](C)O)
T9 chain: Ac-[pS]PTF-NH2

T10: Ac-EPTF-CONH2 (peptide 2) (Homo sapiens, UniProt Q9BX63)
T10 chain: Ac-EPTF-NH2

B1: BRCA1 BRCT (protein)
chain: STERVNKRMSMVVSGLTPEEFMLVYKFARKHHITLTNLITEETTHVVMKTDAEFVCERTLKYFLGIAGGKWVVSYFWVTQSIKERKMLNEHDFEVRGDVVNGRNHQGPKRARESQDRKIFRGLEICCYGPFTNMPTDQLEWMVQLCGASVVKELSSFTLGTGVHPIVVVQPDAWTEDNGFHAIGQMCEAPVVTREWVLDSVALYQCQELDTYLI
B2: BRCA1 BRCT (protein)
chain: VNKRMSMVVSGLTPEEFMLVYKFARKHHITLTNLITEETTHVVMKTDAEFVCERTLKYFLGIAGGKWVVSYFWVTQSIKERKMLNEHDFEVRGDVVNGRNHQGPKRARESQDRKIFRGLEICCYGPFTNMPTDQLEWMVQLCGASVVKELSSFTLGTGVHPIVVVQPDAWTEDNGFHAIGQMCEAPVVTREWVLDSVALYQCQELDTYLIPQIP

Assays:
[1] = target: T1, Ac-pSPTF-COOH (peptide 18); experiment: ITC
[2] = target: T2, Ac-pSPSF-CONH2 (peptide 8); experiment: fluorescence polarization competition
[3] = target: T3, Ac-pSPAF-CONH2 (peptide 6); experiment: fluorescence polarization competition
[4] = target: T4, Ac-pSPVF-COOH (peptide 19); experiment: fluorescence polarization competition
[5] = target: T1, Ac-pSPTF-COOH (peptide 18); experiment: fluorescence polarization competition
[6] = target: T5, Ac-pSPPF-CONH2 (peptide 15); experiment: fluorescence polarization competition
[7] = target: T6, Ac-pSPVF-CONH2 (peptide 7); experiment: fluorescence polarization competition
[8] = target: T7, Ac-pSATF-CONH2 (peptide 5); experiment: fluorescence polarization competition
[9] = target: T8, Ac-pTPTF-CONH2 (peptide 4); experiment: fluorescence polarization competition
[10] = target: T9, Ac-pSPTF-CONH2 (peptide 1); experiment: fluorescence polarization competition
[11] = target: T10, Ac-EPTF-CONH2 (peptide 2); experiment: fluorescence polarization competition

Row | Binder | Kd [1] [µM] | IC50 [2] [µM] | IC50 [3] [µM] | IC50 [4] [µM] | IC50 [5] [µM] | IC50 [6] [µM] | IC50 [7] [µM] | IC50 [8] [µM] | IC50 [9] [µM] | IC50 [10] [µM] | IC50 [11] [µM]
1 | B1 | 0.19 | 30.1 | 35 | 1.6 | 1 | > 250 | 3.2 | – | – | – | –
2 | B2 | – | – | – | – | – | – | – | 15 | > 250 | 4.6 | > 250

From paper PMC3117075 (2011)
